B1: TRIM29 (parent)
chain: FAEKGELRKSIFSESRKPTVSIME

Variants of: B1
Test: protein stability index of a GFP-peptide fusion (GPS, HEK-293T) (PSI 1-6); higher = more stable
Settings: c terminus: a fixed tail appended
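Further: lentivirally expressed fusions sorted by FACS into six bins by GFP to DsRed ratio, PSI derived from sequencing read proportions per bin multiplied by bin number.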

In order of falling protein stability index:
1. FAEKGEWRKSIFSESRKPTVSIME [L7W]  3.9
2. FAEKGELAKSIFSESRKPTVSIME [R8A]  3.85
3. FAEKGELRCSIFSESRKPTVSIME [K9C]  3.57
4. FAEKGELRLSIFSESRKPTVSIME [K9L]  3.5
5. FAEKGELRISIFSESRKPTVSIME [K9I]  3.48
6. FAEWGELRKSIFSESRKPTVSIME [K4W]  3.24
7. FAEKGEERKSIFSESRKPTVSIME [L7E]  3.15
8. FAEKGELWKSIFSESRKPTVSIME [R8W]  2.85
9. FAEKGELIKSIFSESRKPTVSIME [R8I]  2.81
10. FAEKGECRKSIFSESRKPTVSIME [L7C]  2.8
11. FAEKGPLRKSIFSESRKPTVSIME [E6P]  2.78
12. FAEKGLLRKSIFSESRKPTVSIME [E6L]  2.78
13. FAEKGELVKSIFSESRKPTVSIME [R8V]  2.74
14. FAEKGFLRKSIFSESRKPTVSIME [E6F]  2.65
15. FAEKGELFKSIFSESRKPTVSIME [R8F]  2.64
16. FAEKGELRRSIFSESRKPTVSIME [K9R]  2.62
17. FAEKGCLRKSIFSESRKPTVSIME [E6C]  2.57
18. FAEKGELDKSIFSESRKPTVSIME [R8D]  2.55
19. FAEKGELYKSIFSESRKPTVSIME [R8Y]  2.54
20. FAEKYELRKSIFSESRKPTVSIME [G5Y]  2.53
21. FAEKGEPRKSIFSESRKPTVSIME [L7P]  2.52
22. FAEKPELRKSIFSESRKPTVSIME [G5P]  2.46
23. FAEKGEHRKSIFSESRKPTVSIME [L7H]  2.44
24. FAEKGELNKSIFSESRKPTVSIME [R8N]  2.44
25. FAEKGHLRKSIFSESRKPTVSIME [E6H]  2.38
26. FAEVGELRKSIFSESRKPTVSIME [K4V]  2.38
27. FAEKLELRKSIFSESRKPTVSIME [G5L]  2.37
28. FAEKGETRKSIFSESRKPTVSIME [L7T]  2.32
29. FAEKGELLKSIFSESRKPTVSIME [R8L]  2.32
30. FAEKGEQRKSIFSESRKPTVSIME [L7Q]  2.31
31. FAEKIELRKSIFSESRKPTVSIME [G5I]  2.31
32. FAEKGELRGSIFSESRKPTVSIME [K9G]  2.3
33. FAEKHELRKSIFSESRKPTVSIME [G5H]  2.3
34. FAEKGEARKSIFSESRKPTVSIME [L7A]  2.25
35. FAEKGELRPSIFSESRKPTVSIME [K9P]  2.23
36. FAEKGELKKSIFSESRKPTVSIME [R8K]  2.23
37. FAEKGESRKSIFSESRKPTVSIME [L7S]  2.22
38. FAEKGEFRKSIFSESRKPTVSIME [L7F]  2.21
39. FAEKGEIRKSIFSESRKPTVSIME [L7I]  2.18
40. FAEKFELRKSIFSESRKPTVSIME [G5F]  2.17
41. FAEKGELRHSIFSESRKPTVSIME [K9H]  2.16
42. FAEYGELRKSIFSESRKPTVSIME [K4Y]  2.16
43. FAEKSELRKSIFSESRKPTVSIME [G5S]  2.11
44. FAEKGEYRKSIFSESRKPTVSIME [L7Y]  2.08
45. FAEKGELCKSIFSESRKPTVSIME [R8C]  2.08
46. FAEKWELRKSIFSESRKPTVSIME [G5W]  2.04
47. FAEKGEMRKSIFSESRKPTVSIME [L7M]  2.02
48. FAEKGWLRKSIFSESRKPTVSIME [E6W]  2.02
49. FAEKGELRMSIFSESRKPTVSIME [K9M]  2.02
50. FAEKQELRKSIFSESRKPTVSIME [G5Q]  2.02
51. FAEKGELEKSIFSESRKPTVSIME [R8E]  2
52. FAEKGELTKSIFSESRKPTVSIME [R8T]  2
53. FAEKAELRKSIFSESRKPTVSIME [G5A]  1.99
54. FAEKGVLRKSIFSESRKPTVSIME [E6V]  1.93
55. FAEKNELRKSIFSESRKPTVSIME [G5N]  1.93
56. FAEKGELQKSIFSESRKPTVSIME [R8Q]  1.93
57. FAEKGELPKSIFSESRKPTVSIME [R8P]  1.89
58. FAEKGELRSSIFSESRKPTVSIME [K9S]  1.88
59. FAEKGELRNSIFSESRKPTVSIME [K9N]  1.87
60. FAEKGKLRKSIFSESRKPTVSIME [E6K]  1.85
61. FAEKGELRDSIFSESRKPTVSIME [K9D]  1.85
62. FAEKGYLRKSIFSESRKPTVSIME [E6Y]  1.84
63. FAEKGELRESIFSESRKPTVSIME [K9E]  1.84
64. FAEKGERRKSIFSESRKPTVSIME [L7R]  1.82
65. FAEKGILRKSIFSESRKPTVSIME [E6I]  1.82
66. FAEKGELMKSIFSESRKPTVSIME [R8M]  1.81
67. FAEKGSLRKSIFSESRKPTVSIME [E6S]  1.8
68. FAEKGELRQSIFSESRKPTVSIME [K9Q]  1.8
69. FAEKDELRKSIFSESRKPTVSIME [G5D]  1.8
70. FAEKGEDRKSIFSESRKPTVSIME [L7D]  1.78
71. FAEKGMLRKSIFSESRKPTVSIME [E6M]  1.78
72. FAEKKELRKSIFSESRKPTVSIME [G5K]  1.78
73. FAEKGALRKSIFSESRKPTVSIME [E6A]  1.77
74. FAEKGELRASIFSESRKPTVSIME [K9A]  1.77
75. FAEKMELRKSIFSESRKPTVSIME [G5M]  1.72
76. FAEKGEKRKSIFSESRKPTVSIME [L7K]  1.7
77. FAEKRELRKSIFSESRKPTVSIME [G5R]  1.7
78. FAEKEELRKSIFSESRKPTVSIME [G5E]  1.69
79. FAEKVELRKSIFSESRKPTVSIME [G5V]  1.66
80. FAEKGRLRKSIFSESRKPTVSIME [E6R]  1.64
81. FAEKTELRKSIFSESRKPTVSIME [G5T]  1.64
82. FAEKGEVRKSIFSESRKPTVSIME [L7V]  1.62
83. FAEKGTLRKSIFSESRKPTVSIME [E6T]  1.56
84. FAEKGELGKSIFSESRKPTVSIME [R8G]  1.56
85. FAEKGENRKSIFSESRKPTVSIME [L7N]  1.55
86. FAEKGELHKSIFSESRKPTVSIME [R8H]  1.54
87. FAEKGGLRKSIFSESRKPTVSIME [E6G]  1.47
88. FAEKGELSKSIFSESRKPTVSIME [R8S]  1.47
89. FAEKGEGRKSIFSESRKPTVSIME [L7G]  1.46
90. FAEKGQLRKSIFSESRKPTVSIME [E6Q]  1.45
91. FAEKGDLRKSIFSESRKPTVSIME [E6D]  1.44
92. FAEKGELRFSIFSESRKPTVSIME [K9F]  1.39
93. FAEKGNLRKSIFSESRKPTVSIME [E6N]  1.36
94. FAEKCELRKSIFSESRKPTVSIME [G5C]  1.15
